This note sets out measurements from article PMC5262456 (Science Advances, 2016).

Sequences and labels used below:
B2: Spy (ATP-independent periplasmic chaperone), wild type (natural protein, UniProt P77754 24-161, looked up)
chain: ADTTTAAPADAKPMMHHKGKFGPHQDMMFKDLNLTDAQKQQIREIMKGQRDQMKRPPLEERRAMHDIIASDTFDKVKAEAQIAKMEEQRKANMLAHMETQNKIYNILTPEQKKQFNANFEKRLTERPAAKGKMPATAE

Data set [1] addresses B2. The data set is described as follows: ITC.
The target in data set [2] is T1, Spy M85C with MTSL spin label (UniProt P77754 24-161, M85C, MTSL spin label on cysteine 85).
T1 sequence (looked up): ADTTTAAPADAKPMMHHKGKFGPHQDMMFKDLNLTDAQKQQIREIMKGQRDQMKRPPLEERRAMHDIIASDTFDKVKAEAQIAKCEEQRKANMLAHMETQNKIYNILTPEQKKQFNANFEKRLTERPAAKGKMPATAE
The data set is described as follows: intermolecular paramagnetic relaxation enhancement.

In data set [3] the target is T2, SurA (ATP-independent periplasmic chaperone) (UniProt P0ABZ6 21-428).
T2 sequence (looked up): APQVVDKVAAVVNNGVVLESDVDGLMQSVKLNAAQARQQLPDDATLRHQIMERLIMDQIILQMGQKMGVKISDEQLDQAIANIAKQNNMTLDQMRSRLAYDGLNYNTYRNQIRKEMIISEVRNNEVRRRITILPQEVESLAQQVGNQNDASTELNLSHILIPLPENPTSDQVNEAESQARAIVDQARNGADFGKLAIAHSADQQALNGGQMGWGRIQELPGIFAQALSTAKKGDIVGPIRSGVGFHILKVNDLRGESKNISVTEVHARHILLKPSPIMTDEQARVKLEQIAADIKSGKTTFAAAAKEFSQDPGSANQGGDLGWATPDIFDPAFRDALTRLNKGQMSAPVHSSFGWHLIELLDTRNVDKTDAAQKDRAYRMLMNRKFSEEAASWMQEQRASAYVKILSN
Put plainly: NMR titration.

Data set [4] concerns the target T3, Skp (ATP-independent periplasmic chaperone) (UniProt P0AEU7 21-161).
T3 sequence (looked up): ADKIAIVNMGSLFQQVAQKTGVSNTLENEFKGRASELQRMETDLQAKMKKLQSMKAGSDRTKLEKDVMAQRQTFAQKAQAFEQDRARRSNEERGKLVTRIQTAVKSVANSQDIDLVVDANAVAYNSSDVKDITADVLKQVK
Put plainly: NMR titration.

Data set [5] concerns the molecule itself. The data set is described as follows: AUC.
Data set [6] concerns the target T4, Spy T99C with MTSL spin label (UniProt P77754 24-161, T99C, MTSL spin label on cysteine 99).
T4 sequence (looked up): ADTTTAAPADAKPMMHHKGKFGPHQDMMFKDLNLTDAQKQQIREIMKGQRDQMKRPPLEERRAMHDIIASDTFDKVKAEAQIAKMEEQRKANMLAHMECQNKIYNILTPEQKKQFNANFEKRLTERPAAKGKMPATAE
Put plainly: intermolecular paramagnetic relaxation enhancement.

The target of data set [7] is T5, Spy M53C with MTSL spin label (UniProt P77754 24-161, M53C, MTSL spin label on cysteine 53).
T5 sequence (looked up): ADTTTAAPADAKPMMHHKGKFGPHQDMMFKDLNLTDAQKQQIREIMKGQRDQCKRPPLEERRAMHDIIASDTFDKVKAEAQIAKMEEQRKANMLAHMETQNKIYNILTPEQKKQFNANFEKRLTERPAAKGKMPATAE
Put plainly: intermolecular paramagnetic relaxation enhancement.

In data set [8] the target is T2, SurA (ATP-independent periplasmic …).
For data set [9], the target named is T3, Skp (ATP-independent periplasmic …).
Data set [10] addresses B2. The data set is described as follows: SPR. (In SPR one partner is held on a chip, and binding of the other changes the refractive index at the surface.)
Data set [11] deals with B2. Put plainly: intramolecular paramagnetic relaxation enhancement.

B1: Im7 L18A L19A L37A (Im7U) (natural protein, UniProt Q03708 1-87, looked up)
chain: MELKNSISDYTEAEFVQAAKEIEKENVAATDDVLDVALEHFVKITEHPDGTDLIYYPSDNRDDSPEGIVKEIKEWRAANGKPGFKQG
As a reminder, the Kd is the concentration at which binding is half-saturated. The molecule B1 had a Kd in [1] of 0.327 µM. In [1], this molecule had a dH of 8.9 ± 0.5 kcal/mol. Also, the binding result in data set [2], in data set [3] and in [4] was “binds” throughout.
Broadly, the stoichiometry N is the number of molecules, sites or subunits per partner or assembly. As for B2, the “stoichiometry N” value in data set [5] was determined as 2.

B3: Im7, wild type, full length (natural protein, UniProt Q03708 1-87, looked up)
chain: MELKNSISDYTEAEFVQLLKEIEKENVAATDDVLDVLLEHFVKITEHPDGTDLIYYPSDNRDDSPEGIVKEIKEWRAANGKPGFKQG
In the case of B3, the binding result in [6], in data set [2] and in data set [7] was “binds” in each case. Moreover, the results for the Kd in data set [8], in data set [9] and in data set [10] were 50 µM, 66 µM and 20.3 ± 3.2 µM, respectively.

B4: Im7U T30C with MTSL spin label (natural protein, UniProt Q03708 1-87, looked up)
chain: MELKNSISDYTEAEFVQAAKEIEKENVAACDDVLDVALEHFVKITEHPDGTDLIYYPSDNRDDSPEGIVKEIKEWRAANGKPGFKQG
modifications: MTSL spin label on cysteine 30
With B4, the binding result in [11] is given as “binds”.

B5: Im7U T11C with MTSL spin label (natural protein, UniProt Q03708 1-87, looked up)
chain: MELKNSISDYCEAEFVQAAKEIEKENVAATDDVLDVALEHFVKITEHPDGTDLIYYPSDNRDDSPEGIVKEIKEWRAANGKPGFKQG
modifications: MTSL spin label on cysteine 11
For the molecule B5, in data set [11], the binding result is given as “binds”.
